Measurements from publication PMC13570301.

Columns and labels:
[1] = target: T1, CHIP G33S, recombinant, C-terminal His tag, Q9UNE7-1; assay: mass photometry; settings: chain shown with the change, self-association, fraction weighted by number of monomeric subunits, n = 3, read off a plot
T1 chain: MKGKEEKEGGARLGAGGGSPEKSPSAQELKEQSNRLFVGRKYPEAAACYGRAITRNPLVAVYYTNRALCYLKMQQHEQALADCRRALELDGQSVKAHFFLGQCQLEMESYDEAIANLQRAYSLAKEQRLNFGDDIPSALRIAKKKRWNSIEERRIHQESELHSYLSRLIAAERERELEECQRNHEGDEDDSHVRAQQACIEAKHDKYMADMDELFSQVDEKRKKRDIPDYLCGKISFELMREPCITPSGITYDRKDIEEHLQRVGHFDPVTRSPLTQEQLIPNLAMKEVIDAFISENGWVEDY

[2] = target: T2, CHIP-myc wild type (pcDNA3-CHIP-myc) (human), Q9UNE7; assay: native gel or EMSA; Blue native PAGE and immunoblot of lysates (Native PAGE sample buffer, 1% digitonin) of transfected COS-7 cells kept at 37 °C or heat-shocked at 42 °C for 2 h; self-association; settings: remark: other sources report otherwise
T2 chain: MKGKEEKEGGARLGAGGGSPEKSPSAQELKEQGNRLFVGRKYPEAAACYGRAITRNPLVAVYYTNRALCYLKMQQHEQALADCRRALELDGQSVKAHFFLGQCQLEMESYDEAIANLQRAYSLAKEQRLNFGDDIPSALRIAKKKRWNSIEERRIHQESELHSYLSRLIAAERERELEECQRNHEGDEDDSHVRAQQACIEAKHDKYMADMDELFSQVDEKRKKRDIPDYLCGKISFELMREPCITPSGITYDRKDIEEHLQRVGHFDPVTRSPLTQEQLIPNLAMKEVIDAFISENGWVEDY

Binder | other: fraction of total CHIP in octamer (8n) ([1]; parent: est. 0.12) | other: fraction of total CHIP in hexamer (6n) ([1]; parent: est. 0.23) | other: fraction of total CHIP in dimer (2n) ([1]; parent: est. 0.32) | other: fraction of total CHIP in tetramer (4n) ([1]; parent: est. 0.33) | stoichiometry N [2]
CHIP wild type, recombinant, C-terminal His tag (pET30-CHIP-His), Q9UNE7-1 G33S (protein) MKGKEEKEGGARLGAGGGSPEKSPSAQELKEQSNRLFVGRKYPEAAACYGRAITRNPLVAVYYTNRALCYLKMQQHEQALADCRRALELDGQSVKAHFFLGQCQLEMESYDEAIANLQRAYSLAKEQRLNFGDDIPSALRIAKKKRWNSIEERRIHQESELHSYLSRLIAAERERELEECQRNHEGDEDDSHVRAQQACIEAKHDKYMADMDELFSQVDEKRKKRDIPDYLCGKISFELMREPCITPSGITYDRKDIEEHLQRVGHFDPVTRSPLTQEQLIPNLAMKEVIDAFISENGWVEDY | 0.13 | 0.2 | 0.38 | 0.3 | –
CHIP-myc wild type (pcDNA3-CHIP-myc), Q9UNE7-1 1-303 (enzyme) MKGKEEKEGGARLGAGGGSPEKSPSAQELKEQGNRLFVGRKYPEAAACYGRAITRNPLVAVYYTNRALCYLKMQQHEQALADCRRALELDGQSVKAHFFLGQCQLEMESYDEAIANLQRAYSLAKEQRLNFGDDIPSALRIAKKKRWNSIEERRIHQESELHSYLSRLIAAERERELEECQRNHEGDEDDSHVRAQQACIEAKHDKYMADMDELFSQVDEKRKKRDIPDYLCGKISFELMREPCITPSGITYDRKDIEEHLQRVGHFDPVTRSPLTQEQLIPNLAMKEVIDAFISENGWVEDY | – | – | – | – | 2
